Data from article PMC2673437 (Nucleic Acids Research, 2009).
Read-outs that look alike come from different tables or passages of the source. Each block holds one binder with its values, some of them ahead of it. Where no end group is shown, it is not given here. The star is where a group is joined. Biotin = O=C1N[C@H]2[C@H](CS[C@H]2CCCCC(=O)*)N1

Experiments:
[1] = target: T1, Bacillus stearothermophilus DnaB helicase (B. stearothermophilus, UniProt Q9X4C9 1-454); assay: SPR
T1 sequence (looked up): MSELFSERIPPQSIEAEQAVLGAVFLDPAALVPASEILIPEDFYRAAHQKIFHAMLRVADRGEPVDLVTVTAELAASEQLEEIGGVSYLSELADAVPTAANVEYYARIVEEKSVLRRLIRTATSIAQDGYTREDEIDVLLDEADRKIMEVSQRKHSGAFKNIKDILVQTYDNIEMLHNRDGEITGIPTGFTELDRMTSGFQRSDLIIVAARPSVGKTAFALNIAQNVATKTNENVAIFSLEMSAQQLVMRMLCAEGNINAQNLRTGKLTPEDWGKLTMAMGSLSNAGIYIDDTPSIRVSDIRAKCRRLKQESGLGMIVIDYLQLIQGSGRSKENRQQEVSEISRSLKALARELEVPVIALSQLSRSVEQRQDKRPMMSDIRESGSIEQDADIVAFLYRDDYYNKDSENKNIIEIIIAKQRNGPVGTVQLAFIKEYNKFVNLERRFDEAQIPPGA

[2] = target: T1, Bacillus stearothermophilus DnaB …; assay: SPR; remark: listed apart in the source

Binder: Biotin-SGMEPIGRSLQGVTGRPDFQ [N-terminally biotinylated DnaI-N-peptide (DnaI residues 1-18, preceded by biotin-Ser-Gly)]
Kd [2]: ≥ 50 µM

Binder: MEPIGRSLQGVTGRPDFQ [unmodified peptide corresponding to residues 1-18 of DnaI]
Kd [1]: > 140 µM

Further binders by falling Kd [1], results first:

Kd [1]: 18.5 µM
stoichiometry N [1]: 1.8 molecules per Bst DnaB subunit
B2: DnaI-N106 (N-terminal 106 residues of B. subtilis DnaI) (domain or fragment, UniProt P06567 1-106, looked up)
chain: MEPIGRSLQGVTGRPDFQKRLEQMKEKVMKDQDVQAFLKENEEVIDQKMIEKSLNKLYEYIEQSKNCSYCSEDENCNNLLEGYHPKLVVNGRSIDIEYYECPVKRK

Kd [1]: 7.3 µM
stoichiometry N [1]: 1.7 molecules per Bst DnaB subunit
B1: DnaI-N123 (residues 1-123 of B. subtilis DnaI) (domain or fragment, UniProt P06567 1-123, looked up)
chain: MEPIGRSLQGVTGRPDFQKRLEQMKEKVMKDQDVQAFLKENEEVIDQKMIEKSLNKLYEYIEQSKNCSYCSEDENCNNLLEGYHPKLVVNGRSIDIEYYECPVKRKLDQQKKQQSLMKSMYIQ

Kd [1]: 0.65 µM
stoichiometry N [1]: 0.8 molecules per Bst DnaB subunit
B3: DnaI-N132 (residues 1-132 of B. subtilis DnaI, C-terminal His6) (domain or fragment, UniProt P06567 1-132, looked up)
chain: MEPIGRSLQGVTGRPDFQKRLEQMKEKVMKDQDVQAFLKENEEVIDQKMIEKSLNKLYEYIEQSKNCSYCSEDENCNNLLEGYHPKLVVNGRSIDIEYYECPVKRKLDQQKKQQSLMKSMYIQQDLLGATFQ
